Assay results reported in US20240417475A1 (AFFIMED, published 2024).

B1: scFv-IgAb_387 (FOLR1_1×CD16a3) (bispecific antibody)
heavy: EVQLVESGGGVVQPGRSLRLSCSASGFTFSGYGLSWVRQAPGKGLEWVAMISSGGSYTYYADSVKGRFAISRDNAKNTLFLQMDSLRPEDTGVYFCARHGDDPAWFAYWGQGTPVTVSSASTKGPSVFPLAPSSKSTSGGTAALGCLVKDYFPEPVTVSWNSGALTSGVHTFPAVLQSSGLYSLSSVVTVPSSSLGTQTYICNVNHKPSNTKVDKKVEPKSCDKTHTCPPCPAPEFEGGPSVFLFPPKPKDTLMISRTPEVTCVVVAVSHEDPEVKFNWYVDGVEVHNAKTKPREEQYNSTYRVVSVLTVLHQDWLNGKEYKCKVSNKALPAPIEKTISKAKGQPREPQVYTLPPSREEMTKNQVSLTCLVKGFYPSDIAVEWESNGQPENNYKTTPPVLDSDGSFFLYSKLTVDKSRWQQGNVFSCSVMHEALHNHYTQKSLSLSPGGGGGSGGGGSGGGGSGGGGSGGGGSGGGGSSYELTQPLSVSVALGQTARITCGGNNIGSKSVHWYQQKPGQAPVLVIYQDKKRPSGIPERFSGSNSGNTATLTISRAQAGDEADYYCQVWDDYIVLFGCGTKLTVLGGSGGSGGSGGSGGSGGSGGSQVQLVQSGAEVKKPGASVKVSCKASGYTFTNYYMQWVRQAPGQCLEWMGIINPSGGVTSYAQKFQGRVTMTRDTSTSTVYMELSSLRSEDTAVYYCARGSAYYYDFADYWGQGTLVTVSSG
light: DIQLTQSPSSLSASVGDRVTITCSVSSSISSNNLHWYQQKPGKAPKPWIYGTSNLASGVPSRFSGSGSGTDYTFTISSLQPEDIATYYCQQWSSYPYMYTFGQGTKVEIKRTVAAPSVFIFPPSDEQLKSGTASVVCLLNNFYPREAKVQWKVDNALQSGNSQESVTEQDSKDSTYSLSSTLTLSKADYEKHKVYACEVTHQGLSSPVTKSFNRGEC
modifications: Chemically biotinylated (NHS-PEG4-biotin) in Example 22 only.
notes: Tetravalent bispecific scFv-IgAb; also called FOLR1×CD16A scFv-IgAb_387; FOLR1/CD16A scFv-IgAb_387; copies: 2 + 2
B2: scFv-IgAb_381 (FOLR1_1×CD16a4) (bispecific antibody)
chain 1: EVQLVESGGGVVQPGRSLRLSCSASGFTFSGYGLSWVRQAPGKGLEWVAMISSGGSYTYYADSVKGRFAISRDNAKNTLFLQMDSLRPEDTGVYFCARHGDDPAWFAYWGQGTPVTVSSASTKGPSVFPLAPSSKSTSGGTAALGCLVKDYFPEPVTVSWNSGALTSGVHTFPAVLQSSGLYSLSSVVTVPSSSLGTQTYICNVNHKPSNTKVDKKVEPKSCDKTHTCPPCPAPEFEGGPSVFLFPPKPKDTLMISRTPEVTCVVVAVSHEDPEVKFNWYVDGVEVHNAKTKPREEQYNSTYRVVSVLTVLHQDWLNGKEYKCKVSNKALPAPIEKTISKAKGQPREPQVYTLPPSREEMTKNQVSLTCLVKGFYPSDIAVEWESNGQPENNYKTTPPVLDSDGSFFLYSKLTVDKSRWQQGNVFSCSVMHEALHNHYTQKSLSLSPGGGGGSGGGGSGGGGSGGGGSGGGGSGGGGSSYELTQPLSVSVALGQTARITCGGHNIGSKNVHWYQQKPGQAPVLVIYQDNKRPSGIPERFSGSNSGNTATLTISRAQAGDEADYYCQVWDNYNVLFGCGTKLTVLGGSGGSGGSGGSGGSGGSGGSQVQLVQSGAEVKKPGASVKVSCKASGYTFTSYYMHWVRQAPGQCLEWMGAIEPTYGSTSYAQKFQGRVTMTRDTSTSTVYMELSSLRSEDTAVYYCARGSAYYYDFADYWGQGTLVTVS
chain 2: DIQLTQSPSSLSASVGDRVTITCSVSSSISSNNLHWYQQKPGKAPKPWIYGTSNLASGVPSRFSGSGSGTDYTFTISSLQPEDIATYYCQQWSSYPYMYTFGQGTKVEIKRTVAAPSVFIFPPSDEQLKSGTASVVCLLNNFYPREAKVQWKVDNALQSGNSQESVTEQDSKDSTYSLSSTLTLSKADYEKHKVYACEVTHQGLSSPVTKSFNRGEC
notes: also called FOLR1×CD16A scFv-IgAb_381

Key:
[1] = biological target: T1, human FOLR1 expressed on CHO cells (cAg_125) (human, UniProt P15328 25-234); assay: flow cytometry on huFOLR1 CHO cells (cAg_125), one-site fit of MFI, mean
T1 construct: whole, on cells; also called huFOLR1
Description: (§1) To analyze binding of different antibody constructs to CHO cells transfected with human FOLR1 (cAg_125) and cynomolgus FOLR1 (cAg_126), 1-5×10⁵ were resuspended in 100 μL FACS buffer (PBS (BioWest, cat.: L0615-500) containing 2% heat-inactivated FCS (Invitrogen, cat.: 10500-064), and 0.1% sodium azide (Sigma, cat.: S8032_100G)) in round-bottom 96-well microtiter plates. After washing in FACS buffer, cells were incubated in 50 μL FACS buffer without antibodies or with titrated antibodies starting at a concentration of 1000 nM followed by eleven 3-fold serial dilutions for 40-50 min on ice in the dark. […] After washing, binding was measured by flow cytometry and mean fluorescence intensities (MFI) of cell samples were calculated and corrected for background staining using control cells stained with secondary antibodies only.
(§2) Binding of antibody constructs to huFOLR1-as well as cyFOLR1-transfected CHO cells was measured by flow cytometry. Equilibrium dissociation constants (KD) of antibody binding were calculated by plotting MFI values and fitting a non-linear regression model for one-site binding to hyperbolic dose-response curves using GraphPad Prism.

[2] = biological target: T2, cynomolgus CD16 expressed on CHO cells (cAg_36) (cynomolgus, UniProt Q8SPW2 17-254); assay: flow cytometry on cyCD16 CHO cells (cAg_36), one-site fit of MFI, Exp. 3
T2 construct: whole, on cells; also called cyCD16
Description: (§3) After washing in FACS buffer, cells were incubated in 50 μL FACS buffer without antibodies or with titrated antibodies starting at a concentration of 1000 nM followed by elven 3-fold serial dilutions for 40-50 min on ice in the dark. […] After washing, binding was measured by flow cytometry and mean fluorescence intensities (MFI) of cell samples were calculated and corrected for background staining using control cells stained with secondary antibodies only.
(§4) Equilibrium dissociation constants (KD) of antibody binding were calculated by plotting MFI values and fitting a non-linear regression model for one-site binding to hyperbolic dose-response curves using GraphPad Prism.

[3] = biological target: T1, human FOLR1 expressed on CHO cells …; assay: flow cytometry on huFOLR1 CHO cells (cAg_125), one-site fit of MFI, Exp. 3
Description: as §1, §2

[4] = biological target: T2, cynomolgus CD16 expressed on CHO cells …; assay: flow cytometry on cyCD16 CHO cells (cAg_36), one-site fit of MFI, Exp. 1
Description: as §3, §4

[5] = biological target: T3, cynomolgus FOLR1 expressed on CHO cells (cAg_126) (cynomolgus, UniProt A0A2K5U044 25-234); assay: flow cytometry on cyFOLR1 CHO cells (cAg_126), one-site fit of MFI, Exp. 2
T3 construct: whole, on cells; also called cyFOLR1
Description: as §1, §2

[6] = biological target: T3, cynomolgus FOLR1 expressed on CHO cells …; assay: flow cytometry on cyFOLR1 CHO cells (cAg_126), one-site fit of MFI, Exp. 3
Description: as §1, §2

[7] = biological target: T4, human CD16A (158V) expressed on CHO cells (cAg_35) (human, UniProt P08637 17-254); assay: flow cytometry on huCD16A (158V)-transfected CHO cells (printed sAg_35), on ice, FITC goat anti-human IgG detection
T4 construct: also called huCD16A (158V)
Description: as §3

[8] = biological target: T1, human FOLR1 expressed on CHO cells …; assay: flow cytometry on huFOLR1 CHO cells (cAg_125), one-site fit of MFI, Exp. 1
Description: as §1, §2

[9] = biological target: T2, cynomolgus CD16 expressed on CHO cells …; assay: flow cytometry on cyCD16-transfected CHO cells (cAg_36), on ice, FITC goat anti-human IgG detection
Description: as §3

[10] = biological target: T5, human CD16A (158F) expressed on CHO cells (cAg_34) (human, UniProt P08637 17-254); assay: flow cytometry on huCD16A (158F) CHO cells (cAg_34), one-site fit of MFI, mean
T5 construct: also called huCD16A-transfected CHO cells
Description: as §3, §4

[11] = biological target: T2, cynomolgus CD16 expressed on CHO cells …; assay: flow cytometry on cyCD16 CHO cells (cAg_36), one-site fit of MFI, mean
Description: as §3, §4

[12] = biological target: T4, human CD16A (158V) expressed on CHO …; assay: flow cytometry on huCD16A (158V) CHO cells (cAg_35), one-site fit of MFI, Exp. 2
Description: as §3, §4

[13] = biological target: T3, cynomolgus FOLR1 expressed on CHO cells …; assay: flow cytometry on cyFOLR1-transfected CHO cells (cAg_126), on ice, FITC goat anti-human IgG detection
Description: as §1

[14] = biological target: T1, human FOLR1 expressed on CHO cells …; assay: flow cytometry on huFOLR1 CHO cells (cAg_125), one-site fit of MFI, Exp. 2
Description: as §1, §2

[15] = biological target: T4, human CD16A (158V) expressed on CHO …; assay: flow cytometry on huCD16A (158V) CHO cells (cAg_35), one-site fit of MFI, mean
Description: as §3, §4

[16] = biological target: T4, human CD16A (158V) expressed on CHO …; assay: flow cytometry on huCD16A (158V) CHO cells (cAg_35), one-site fit of MFI, Exp. 1
Description: as §3, §4

[17] = biological target: T3, cynomolgus FOLR1 expressed on CHO cells …; assay: flow cytometry on cyFOLR1 CHO cells (cAg_126), one-site fit of MFI, Exp. 1
Description: as §1, §2

T4 sequence (P08637 17-254 F176V limits assumed): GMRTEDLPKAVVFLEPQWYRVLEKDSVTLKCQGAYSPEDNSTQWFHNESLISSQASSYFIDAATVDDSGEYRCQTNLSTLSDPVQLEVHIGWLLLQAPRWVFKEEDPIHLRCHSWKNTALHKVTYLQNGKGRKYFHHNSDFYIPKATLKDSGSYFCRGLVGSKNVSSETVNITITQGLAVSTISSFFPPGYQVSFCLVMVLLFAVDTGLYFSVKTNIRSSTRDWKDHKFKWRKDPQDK
T2 sequence (Q8SPW2 17-254): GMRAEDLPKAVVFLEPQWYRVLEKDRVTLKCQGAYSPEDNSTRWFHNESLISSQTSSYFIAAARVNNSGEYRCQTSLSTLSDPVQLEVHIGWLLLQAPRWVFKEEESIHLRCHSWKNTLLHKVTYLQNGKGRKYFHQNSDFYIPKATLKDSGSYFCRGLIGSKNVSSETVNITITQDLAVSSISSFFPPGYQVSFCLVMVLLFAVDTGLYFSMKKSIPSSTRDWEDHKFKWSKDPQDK
T3 sequence (A0A2K5U044 entry or part of it): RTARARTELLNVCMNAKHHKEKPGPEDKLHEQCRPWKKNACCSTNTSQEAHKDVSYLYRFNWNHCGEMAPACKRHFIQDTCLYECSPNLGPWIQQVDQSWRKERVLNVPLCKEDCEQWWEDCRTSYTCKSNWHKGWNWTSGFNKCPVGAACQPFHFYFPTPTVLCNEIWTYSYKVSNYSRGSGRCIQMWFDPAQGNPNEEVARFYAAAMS
T1 sequence (P15328 25-234): as the sequence (A0A2K5U044 entry or part of it) above, with T2I, R4W, K37R, P146A, Y171H counted along it
T5 sequence (P08637 17-254 limits assumed): as the sequence (P08637 17-254 F176V limits assumed) above, with V160F counted along it

Binder	Kd [1]	Kd [2]	Kd [3]	Kd [4]	Kd [5]	Kd [6]	EC50 (read off the curve) [7]	Kd [8]	EC50 (read off the curve) [9]	Kd [10]	Kd [11]	Kd [12]	EC50 (read off the curve) [13]	Kd [14]	Kd [15]	Kd [16]	Kd [17]
B1	35.8 nM	22.8 nM	40.6 nM	26.6 nM	15.3 nM	18.8 nM	~50 nM	35.1 nM	~30 nM	21.5 nM	25.2 nM	29.1 nM	~20 nM	31.6 nM	30.8 nM	15.8 nM	14.9 nM
B2	24.7 nM	28.2 nM	29.3 nM	38.6 nM	11.8 nM	14 nM	~60 nM	20.3 nM	~40 nM	26.2 nM	32.8 nM	43.3 nM	~10 nM	24.4 nM	43 nM	22 nM	11.5 nM
